The values below come from the DeepSol protein solubility set.

The data set in a line: soluble on expression in E. coli; label from the status in PepcDB or PDB records.
“MGSDKIHHHHHHMITHRSDLNANYLLNALPRSEWESLAQHVELVRLRAGELLTDSGQRIVHVYFPTTSVVSLLSLLEDGATVEIAAVGNEGLVGVPVVTGGDTMPCRVEVRSPGLAYRIPARLLRSELPRTPTLQRVTLLYVQAMLTQIAQTAACNRHHSLNKQLCRWLLLAVDRLSSNELVITQQVIANMLGVRREGVTEAAGKLEDLGLIHHSRGHITVLDRCGLEKHSCECYKLVKREYDRLLPALAHA”: the “soluble on expression in E. coli” value is on record as “not soluble”.

As to “GPGSMHDLPEGFEFMEHKVVNKDIHAPHENLETLRLTLTRQDEFLLREEPVKCVTVTGTNGEYGIYPGHAYKIVQLNPSPLTVEYTDGTTKKYFVSGGFAHINNEGSCDVNTVECTLLDDLDLAIAEKELAAQQAALGSAKDDKAKSVVEIRISVIEAVIAALKHH”, the “soluble on expression in E. coli” value is listed as “soluble”. For “MHHHHHHMKHNQLPLVIEFTEQTAPKIFGGEIKTHILLFLPKSVSDYDGKLSNFKTAAESFKGKILFAFIDSDHTDNQRILEFFGLKKEECPAVRLITLEEEMTKYKPESEELTAERITEFCHRFLEGKIKPHLMSQELPEDWDKQP”, the “soluble on expression in E. coli” value is listed as “soluble”. With “MGSDKIHHHHHHASCDKFDEINTDPDATTKVTSSLLATGLLLDITSSSASKSFIYDELLAKQMAWGESMEDYQYNVFGRSGFGGYTTLINAQKMVESVSDDNVNAYDGLAHFIKAYKIFYMSMEMGDLPYEEALQGELGLVRPKYNTQKEVMNFILSDLETAYELFSTAKDFDGDPILGGSISKWKKATTAFQLKVLMHLSKKESDADLKVKERFARIVASGSLMESNEDNLQMKYADKANTVYPFHNTNTKHAGYAMLSTMLIDKFKATGDIRMFYYAKPAKAKLNEGVTADSWDAYIGTDPSLPFEQIEKAYATEQYSGFNARYTDYPSGEPVVRLGYAEQNFILAEAAVRGWISGDASAYYKKAIRAHMEFIASNTPDEEVYHHGHPITEEAIAAFLETPAIQLSGEKEEDIEKILTQRYLASFMQHPYDVYYDYRRTGYPVLPINPATNRNTMNDRLPMRWMYPKSESDYNLEHQNEALERQFGGVDDVNKLMWILQ”, the “soluble on expression in E. coli” value is “not soluble”. Next, “MSDYLSVSSLTKYLKLKFDRDPYLERVYLTGQVSNFRRRPNHQYFSLKDEKAVIQATMWSGIYRKLGFELEEGMKINVIGRVQLYEPSGSYSIIIEKAEPDGIGALAVQFEQLKKKLAEAGYFDDRHKQRLSQFVKKIGVVTSPSGAVIRDIITTVSRRFPGVDILLFPTKVQGEGAAQEVADNIRLANERTDLDLLIVGRGGGSIEDLWAFNEEIVVQAIFESHLPIISSVGHETDTTLADFAADRRAATPTAAAELATPVTKADLLAFLKERQMRSYQAVMRLIRQKDEQVKKLQRSVIFRQPERLYDAYVQKLDHLRTHLLTKVRQVYDVYDSKEHLLRQRLLSFNLSGCIQRYQAQLKQDQRLLLSHMSSQYDSKLARFEKAQDALLSLDTTRIVARGYAIVQKDNHIIQSTQQIKKGDRLHLEMKDGQVQVEVENVKQEENI”: “not soluble”; “MSLAETLEKNAIDKSEYPQTAELENRCVNILADLWNAPKDMSYLGTSTVGSSEACMLGGLAMKFRWRNNAEKRGLDIQAKRPNLIISSGYQVCWEKFCVYWDVDMRVVPMDKNHLSLDVDKVFDLVDEYTIGVVGILGITYTGKFDDIQLLDEKVEAYNETNEHQLVIHIDGASGAMFTPFVNPELPWDFRLKNVVSINTSGHKYGLVYPGVGWILWKDKEYLPKELIFEVSYLGGSMPTMAINFSRSASQIIGQYYNFLRYGFEGYREIHEKTKKTAIYLAKTVEKSGYFEIINDGANLPIVCYKMKEGLDVEWTLYDLADQLLMKGWQVPAYPLPADLSDTIIQRFVCRADLGYNVAEEFAADFADAIHNLEHARVLYHDKERNDSYGFTHEGHHHHHH”: “soluble”. Regarding “MGSDKIHHHHHHMLPNLKKALDGIVVCDFSWVGAGPIATNVLGQCGAEVIKIESKSRPDLLRTGGPFKDGINEGLERSGYFANRNPNKKGIALDMSHPKARAVAVRLIRKSDIVINNFRVGQMEKWGLGWEDVRKINPRIIYVTMSLQGETGPQKSYMGFGVNLNALCGLTAQACFPGERPFGTGTNYTDHVMAPSHTLFGIMAALLEREQTGEGQTVAISQLKSAISMAPTSAMTYAANGDTLGPAGLSDPNAAPHGLFTTLGYRRWIAIAVFSEDEWRALKKVMGNPAWAEDGKFGSLQSRKENEAELNEHMEAWTSRQHADKIMDELLRNGVRAGVVNDARGAIEDDHLREREFWSYLDHPVMGRTLYNRAPIRLSKTPLRMETAAPLLGQHTRDVLKGMLDYTDEEIAMLSEEKVLV”, the “soluble on expression in E. coli” value was “not soluble”.
